Experimental data published in patent US20240101700A1 (BIOCON, published 2024).

Key:
CD6 [1] = biological target: T1, CD6 (human, UniProt P30203 18-668, tyrosine phosphorylation of the cytoplasmic domain (sites not given)); assay: cell-based or functional assay
T1 construct: whole, on cells; Endogenous CD6 of human PBMCs; also called CD6 receptor; hCD6
T1 sequence (looked up): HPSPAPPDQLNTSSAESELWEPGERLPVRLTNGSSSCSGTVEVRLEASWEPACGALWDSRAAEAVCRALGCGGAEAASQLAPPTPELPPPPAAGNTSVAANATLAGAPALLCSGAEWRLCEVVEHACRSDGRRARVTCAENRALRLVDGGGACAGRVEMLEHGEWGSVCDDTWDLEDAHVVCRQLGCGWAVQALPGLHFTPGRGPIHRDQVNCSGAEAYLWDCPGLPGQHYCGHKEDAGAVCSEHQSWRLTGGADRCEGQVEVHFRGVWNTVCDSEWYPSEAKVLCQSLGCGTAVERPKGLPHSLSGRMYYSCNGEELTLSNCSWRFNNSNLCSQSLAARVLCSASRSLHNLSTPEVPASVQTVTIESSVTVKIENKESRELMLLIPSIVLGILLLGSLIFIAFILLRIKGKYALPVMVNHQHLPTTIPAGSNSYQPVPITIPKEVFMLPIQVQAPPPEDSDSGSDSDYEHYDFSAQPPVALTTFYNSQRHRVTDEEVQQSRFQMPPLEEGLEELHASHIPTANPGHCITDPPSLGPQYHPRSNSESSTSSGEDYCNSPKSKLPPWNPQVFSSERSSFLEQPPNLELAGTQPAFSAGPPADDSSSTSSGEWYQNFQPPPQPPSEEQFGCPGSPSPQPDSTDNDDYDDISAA

CD6 [2] = biological target: T1, CD6; assay: co-immunoprecipitation with CD6 (pulled down by itolizumab) and immunoblot; PBMCs on plate-bound ALCAM against no ALCAM
CD6 [3] = biological target: T1, CD6; assay: immunoprecipitation of CD6 from human PBMC lysates and CD6 immunoblot
Procedure: In these experiments, PBMC were treated with 0.5 ng/ml anti-CD3 antibody (OKT 3) for 24 h in presence or absence of itolizumab or Iso Ab antibody. Cells were harvested and CD6 was immune-precipitated with itolizumab or Iso Ab. 10% total lysate served as input control samples. Both immune precipitated and input control samples were immune blotted and analyzed.

**Q.** Which CD6 tyrosine phosphorylation (CD6 [1]) does the source give for “Fc-ALCAM (from UniProt Q13740 28-527) (Fc fusion)” here?
**A.** > 2.5 fold

**Q.** And the phosphorylation of CD6 associated SHP1 and SHP2 (CD6 [1])?
**A.** 3 to 4 fold

**Q.** How did the fold increase of association with CD6 (CD6 [2]) turn out when SLP-76 (from UniProt Q13094 1-533) was run?
**A.** 3 to 4 fold

**Q.** How did the fold increase of association with CD6 (CD6 [2]) turn out when “Zap70 (from UniProt P43403 1-619) (enzyme)” was run?
**A.** 3 to 4 fold

B1: itolizumab (antibody, human IgG1, kappa, V domains shown)
VH: EVQLVESGGGLVKPGGSLKLSCAASGFKFSRYAMSWVRQAPGKRLEWVATISSGGSYIYYPDSVKGRFTISRDNVKNTLYLQMSSLRSEDTAMYYCARRDYDLDYFDSWGQGTLVTVSS
VL: DIQMTQSPSSLSASVGDRVTITCKASRDIRSYLTWYQQKPGKAPKTLIYYATSLADGVPSRFSGSGSGQDYSLTISSLESDDTATYYCLQHGESPFTLGSGTKLEIKR
notes: Humanized IgG1, produced at Biocon Ltd, used in soluble form; also called T1h; humanized IgG1 isotype anti-CD6 monoclonal antibody
**Q.** Does B1 bind (CD6 [3])?
**A.** binds
